The record followed here is publication PMC5570423, “Structural characterisation of TNRC6A nuclear localisation signal in complex with importin-alpha” (PLoS ONE, 2017).

For this test, the target named is Mouse importin-α1 lacking the IBB domain (mImpα1ΔIBB; residues 70–529) (mouse, UniProt P52293 70-529). In words: ELISA; solid phase plate binding assay, no cross-linking: MaxiSorp plates coated with 25 nM GST-cNLS or GST in PBS, 0.2 mM PMSF, 2 mM DTT; serial dilutions of S-tagged mImpα1ΔIBB, 1 hr at 4°C; detected with S-protein-HRP; apparent Kd, one-site specific binding, duplicates. As to conditions: both partners purified. (An ELISA detects its analyte on a solid surface through an enzyme-linked reagent.)

B1: GST-TNRC6A cNLS P3, P5 mutant (Arg1168Lys and Arg1170Lys) (peptide)
chain: SGKKKRKER
notes: source: E. coli BL21(DE3), purified
For B1, the Kd came out at 898 nM.

B2: GST-TNRC6A cNLS (residues 1164–1172 of mouse TNRC6A, corresponding to residues 1179–1187 of human TNRC6A isoform 1) (peptide)
chain: SGKKRRRER
notes: TNRC6A classical nuclear localisation signal, mouse residues 1164-1172 = human residues 1179-1187 (isoform 1; 926-934 in isoform 2); the motif is strictly conserved between mouse and human; Cloned into pGEX-6P with overlapping oligonucleotides; also called GST-cNLS; GST-NLS; source: E. coli BL21(DE3), purified
On to B2, for which the Kd stood at 75.6 nM.

B3: GST-TNRC6A cNLS N-term mutant (1164Ser-Gly1165 substituted to prolines) (peptide)
chain: PPKKRRRER
notes: also called TNRC6A N-term mutant; source: E. coli BL21(DE3), purified
As to B3, the Kd was 19 nM.

B4: GST-TNRC6A cNLS P5 mutant (Arg1170 to Lys) (peptide)
chain: SGKKRRKER
notes: as for B1
On to B4, for which the Kd amounted to 1140 nM.

B5: GST-TNRC6A cNLS P3 mutant (Arg1168Lys) (peptide)
chain: SGKKKRRER
notes: also called P3 TNRC6A mutant; source: E. coli BL21(DE3), purified
On to B5, for which the Kd came out at 1880 nM.
